From US20240000956A1

Experiments:
[1] = biological target: SpG-type LecRLK-2PAN (Salix purpurea); experiment: size exclusion chromatography, self-association
[2] = biological target: LecRLK-2RPAN (Salix purpurea); experiment: size exclusion chromatography, self-association

percent in higher-order complex (likely a trimer or tetramer) [1] | percent monomeric [1] | percent monomeric [2] | Substance
48.2% | 51.8% |  | SpG-type LecRLK-2PAN (receptor)
 |  | 26.4% | LecRLK-2RPAN (receptor)
